Reference: US8173596B2, “Prouroguanylin, and synthetic analogs or proteolytic cleavage products derived from it, as therapeutic and diagnostic agents for diseases involving salt and/or fluid homeostasis” (The University of North Carolina at Chapel Hill, priority 2004, dated 2012)
Entries after “also recorded” stand apart in the source; their conditions may differ.

Columns and labels:
[1] = target: T1, GC-C (Homo sapiens, UniProt P25092); conditions: other reports (Hamra et al. 1996); cited from earlier work
T1 construct: endogenous in cells; host or cells: T84 cells
T1 sequence (P25092 24-1073): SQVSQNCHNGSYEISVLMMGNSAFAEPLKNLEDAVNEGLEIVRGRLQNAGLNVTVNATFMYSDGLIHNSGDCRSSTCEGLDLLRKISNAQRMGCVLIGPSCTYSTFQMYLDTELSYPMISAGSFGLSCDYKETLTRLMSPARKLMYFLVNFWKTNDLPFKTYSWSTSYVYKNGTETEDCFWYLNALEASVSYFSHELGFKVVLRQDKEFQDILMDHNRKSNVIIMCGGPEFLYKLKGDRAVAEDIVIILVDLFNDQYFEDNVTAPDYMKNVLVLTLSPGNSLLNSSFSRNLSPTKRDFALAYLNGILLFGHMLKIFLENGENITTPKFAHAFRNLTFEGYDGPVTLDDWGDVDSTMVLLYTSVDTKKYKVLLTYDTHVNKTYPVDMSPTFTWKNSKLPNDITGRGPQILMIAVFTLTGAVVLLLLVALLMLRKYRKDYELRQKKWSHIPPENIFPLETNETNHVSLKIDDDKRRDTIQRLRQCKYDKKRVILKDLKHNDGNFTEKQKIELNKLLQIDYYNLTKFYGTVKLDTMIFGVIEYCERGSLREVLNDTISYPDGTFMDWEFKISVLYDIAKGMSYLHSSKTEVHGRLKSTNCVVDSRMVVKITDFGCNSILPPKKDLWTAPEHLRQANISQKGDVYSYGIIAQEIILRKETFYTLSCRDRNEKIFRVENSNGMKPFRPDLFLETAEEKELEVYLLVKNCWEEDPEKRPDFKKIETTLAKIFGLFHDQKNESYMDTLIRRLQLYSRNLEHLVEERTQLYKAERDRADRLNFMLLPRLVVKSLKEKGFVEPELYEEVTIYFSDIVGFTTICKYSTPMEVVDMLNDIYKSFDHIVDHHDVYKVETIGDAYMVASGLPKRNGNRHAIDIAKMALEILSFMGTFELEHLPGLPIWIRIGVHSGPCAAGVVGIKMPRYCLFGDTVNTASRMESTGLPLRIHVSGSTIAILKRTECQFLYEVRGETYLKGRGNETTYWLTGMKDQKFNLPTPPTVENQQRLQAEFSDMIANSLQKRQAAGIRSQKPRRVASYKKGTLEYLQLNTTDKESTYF

[2] = tested on: anesthetized rats; assay: Diuresis and natriuresis induced by infused native proUGn in anesthetized rats; assay type: in vivo, rat
Method: (§1) Experiments were performed with 200-250 g male Sprague Dawley rats (Charles River Laboratories, Wilmington, Mass., United States of America). Rat test diets were obtained from a commercial supplier (Harlan Teklad, Madison, Wis., United States of America). For some experiments, anephric animals were prepared by surgical acute ligation of the renal pedicles. As necessary, animals were anesthetized with Nembutal (60 mg/kg body weight ip).
Na, K, and fluid excretion: Na and K concentrations are analyzed on an IF model 943 flame photometer (Instrumentation Laboratory Company, Lexington, Mass., United States of America). Urine is collected from ureteric canulae or by the use of metabolic cages. Urine volume is determined gravimetrically.
Native proUGn is purified from rat small intestine. Animals are sacrificed by anesthetic overdose, and approximately 20 cm of proximal small intestine is removed. The tissue is cut longitudinally, rinsed with saline, and the mucosal layer is isolated by scraping with a microscope slide. Scraped material is snap-frozen on a metal plate chilled to −78.5° C., then homogenized in 50 mM HEPES, pH 7.4, containing protease inhibitor. The homogenate is cleared by centrifugation at 50,000×g, and the supernate is fractionated sequentially by HPLC on a MonoQ anion exchange column and a VYDAC C-18 reverse-phase column. The HPLC chromatogram of this second chromatography step is shown in FIG. 10a, with a Western blot of the individual HPLC fractions shown in the inset, confirming the presence of proUGn. The purified material was dried to remove the HPLC solvents and resuspended in physiological saline. Recovery is measured by quantitative proUGn immunoassay.
Native proUGn is infused for 60 min into a group of 5 anesthetized rats, the standard infusion containing approximately 180-pmol peptide. Given an estimated rat plasma volume of 10 mL, the infusion rate was approximately […]. Blood pressure, urine production, and sodium excretion were monitored for approximately 40 minutes prior to the infusion, during the infusion, and for approximately 50 minutes after the infusion to measure the effect of the proUGn on diuresis and natriuresis. For comparison, a control group of five rats was infused with regular saline, one rat was infused with a solution of proUGn that had been neutralized by incubation with antibodies 6910 and 6912, and one rat was infused with a solution containing STa at 5 μg/kg/hr.

[3] = HPLC analysis of proUGn metabolites in plasma and urine; assay type: in vivo, rat
Method: Unless otherwise stated, HPLC conditions for the detection and identification of proUGn and related peptides are as follows: Vydac 218TP™ C-18 reverse-phase column (Grace Vydac, Hesperica, Calif., United States of America); equilibration of the column with H2O with 0.1% TFA for 25 minutes, followed by a 30 minutes gradient from 0% acetonitrile (with 0.1% TFA) to 50% acetonitrile (with 0.1% TFA), 5 min wash with 100% acetonitrile (0.1% TFA).
Plasma samples were taken 2, 5, and 10 min after bolus injection of ^35S-proUGn (about 10^6 cpm) into the carotid artery (n=2 for each timepoint). Urine was collected for 30 min at the end of a 60 min arterial infusion of ^35S-proUGn (n=7). The cpm/μL in the infused material was approximately 100 times lower than the cpm/μL in the solution used for the bolus injection. Plasma and urine samples were applied to the HPLC column and eluted, with the radioactivity in each fraction measured in a scintillation counter.

[4] = Kidney clearance and tissue fate of infused or bolus-injected 35S-proUGn; assay type: in vivo, rat
Method: as §1
Radioactive proUGn was prepared by coupled in vitro transcription/translation in the presence of ^35S-Cys and ^35S-Met from a cDNA template that encoded full-length proUGn (minus the signal peptide).
A solution containing radioactively-labeled r-proUGn was infused by iv into anesthetized rats for 60 min. The concentration of radioactivity in the plasma and the urine was measured via scintillation counting at timepoints throughout the infusion. […] At the end of the 60 min infusion, tissue samples were collected from the brain, thymus, lung, small intestine, skeletal muscle, spleen, heart, kidney, and liver and assayed for radioactivity by scintillation counting.
To measure the rate of kidney clearance of proUGn, plasma levels of ^35S-proUGn were monitored following bolus injection of the radiolabelled propeptide. Bolus injections (about 10^6 cpm) were given to groups of control (i.e., normal) rats and to anephric rats. At various timepoints after the injection, blood samples were removed and fractionated by HPLC. Radioactivity in each HPLC fraction was measured in a scintillation counter. […] Taken together, the results from these experiments indicate that the kidney appears to be the major route of clearance for proUGn.

[5] = steady iv infusion over 60 min, FIG. 8a

B1: proguanylin (protein, listed as Rattus norvegicus)
chain: MNAWLLSVLCLLGALAVLVEGVTVQDGDLSFPLESVKQLKHLREVQEPTLMSHKKFALRLPKPVAPELCSQSAFPEALRPLCEKPNAEEILQRLEAIAQDPNTCEICAYAACTGC
notes: propeptide of Gn15
- activation of GC-C [1]: inability

B2: prouroguanylin (protein, listed as Rattus norvegicus)
chain: VYIKYHGFQVQLESVKKLNELEEKQMSDPQQQKSGLLPDVCYNPALPLDLQPVCASQEAASTFKALRTIATDECELCINVACTGC
notes: propeptide of UGn18
- sodium excretion following proUGn infusion ([2]; 60 min infusion of approximately 180 pmol peptide, after infusion): 3200 nmol/min
- sodium excretion ([2]; 60 min infusion, FIG. 10c): mirrored the increase in urine flow rate
- urine flow ([2]; 60 min infusion, anesthetized rats, FIG. 10b): increase in urine flow
- onset of the response to proUGn ([2]; after beginning infusion): 20 to 40 min
- duration of the response to proUGn ([2]; after terminating the infusion): more than several hours
- sodium excretion before proUGn infusion ([2]; baseline of the infused animals): 60 nmol/min
- natriuretic response compared with responses reported in the literature for UGn18 ([2]; comparison with literature UGn18 infusion): many times greater
- increase in urine production ([2]; infusing exogenous proUGn into the bloodstream): ≤ 50 fold
- activation of GC-C [1]: inability

B3: ^35S-proUGn: proUGn prepared by coupled in vitro transcription/translation in the presence of 35S-Cys and 35S-Met (protein)
chain: B2 chain
- integrity in plasma (HPLC of radiolabelled species) ([3]; plasma 2, 5, 10 min after bolus injection, FIG. 9a): appears to remain intact in plasma
- radioactive species in urine (HPLC) ([3]; urine collected 30 min at end of 60 min infusion, FIG. 9b): at least two, and possibly three, proUGn-related products
- clearance from plasma, control versus anephric rats ([4]; bolus injection about 10^6 cpm, FIG. 8c): cleared more quickly in the control animals; also recorded: cleared rapidly from the plasma of a normal animal
- tissue distribution of radioactivity ([4]; end of 60 min infusion, brain, thymus, lung, small intestine, skeletal muscle, spleen, heart, kidney, liver, FIG. 8b): only the kidney samples contained significant levels of radioactivity; also recorded: specific activity of labeling in the kidney is greater than in any other tissue
- plasma level of radioactivity [4, 5]: remained steady; also recorded: stable plasma level of radioactivity
- urine level of radioactivity [4, 5]: increased dramatically
